Results taken from publication PMC10959955 (2024).

target: nucleosome reconstituted with human core histones and Widom 601 DNA (human, UniProt P04908 2-130; P06899 1-126; P68431 1-136; P62805 2-103); assay: MST

Binder | Kd
His6-tagged RING domain heterodimer, GA mutant (GST-RING^A T948G^A-T952A^A with His6-Twin-Strep-Rad6A-RING^B) (complex, RED-Tris-NTA label on the His6 tag) chain 1: PDNVPKCDEILMEEIKDYKARLTCPCCNMRKKDAVLTKCFHVFCFECVKGRYDARQRKCPKCNAAFGANDFHRIYIG chain 2: MSTPARRRLMRDFKRLQEDPPAGVSGAPSENNIMVWNAVIFGPEGTPFEDGTFKLTIEFTEEYPNKPPTVRFVSKMFHPNVYADGSICLDILQNRWSPTYDVSSILTSIQSLLDEPNPNSPANSQAAQLYQENKREYEKRVSAIVEQSWRDCVEVYADADEILQEEIKEYKARLTCPCCNTRKKDAVLTKCFHVFCFECVRGRYEARQRKCPKCNAAFGAHDFHRIYIS | 11.8 nM
His6-tagged RING domain heterodimer, GA + TT mutant (GST-RING^A T948G^A-T952A^A with His6-Twin-Strep-Rad6A-RING^B G974T^B-A978T^B) (complex, RED-Tris-NTA label on the His6 tag) chain 1: PDNVPKCDEILMEEIKDYKARLTCPCCNMRKKDAVLTKCFHVFCFECVKGRYDARQRKCPKCNAAFGANDFHRIYIG chain 2: MSTPARRRLMRDFKRLQEDPPAGVSGAPSENNIMVWNAVIFGPEGTPFEDGTFKLTIEFTEEYPNKPPTVRFVSKMFHPNVYADGSICLDILQNRWSPTYDVSSILTSIQSLLDEPNPNSPANSQAAQLYQENKREYEKRVSAIVEQSWRDCVEVYADADEILQEEIKEYKARLTCPCCNTRKKDAVLTKCFHVFCFECVRTRYETRQRKCPKCNAAFGAHDFHRIYIS | 34 nM

Results, then the binder that gave them:

Kd | Binder
7.3 nM | His6-tagged RING domain heterodimer, TT mutant (GST-RING^A with His6-Twin-Strep-Rad6A-RING^B G974T^B-A978T^B) (complex, RED-Tris-NTA label on the His6 tag) chain 1: PDNVPKCDEILMEEIKDYKARLTCPCCNMRKKDAVLTKCFHVFCFECVKTRYDTRQRKCPKCNAAFGANDFHRIYIG chain 2: MSTPARRRLMRDFKRLQEDPPAGVSGAPSENNIMVWNAVIFGPEGTPFEDGTFKLTIEFTEEYPNKPPTVRFVSKMFHPNVYADGSICLDILQNRWSPTYDVSSILTSIQSLLDEPNPNSPANSQAAQLYQENKREYEKRVSAIVEQSWRDCVEVYADADEILQEEIKEYKARLTCPCCNTRKKDAVLTKCFHVFCFECVRTRYETRQRKCPKCNAAFGAHDFHRIYIS
7.8 nM | His6-tagged RING domain heterodimer, wild type (GST-RING^A with His6-Twin-Strep-Rad6A-RING^B) (complex, RED-Tris-NTA label on the His6 tag) chain 1: PDNVPKCDEILMEEIKDYKARLTCPCCNMRKKDAVLTKCFHVFCFECVKTRYDTRQRKCPKCNAAFGANDFHRIYIG chain 2: MSTPARRRLMRDFKRLQEDPPAGVSGAPSENNIMVWNAVIFGPEGTPFEDGTFKLTIEFTEEYPNKPPTVRFVSKMFHPNVYADGSICLDILQNRWSPTYDVSSILTSIQSLLDEPNPNSPANSQAAQLYQENKREYEKRVSAIVEQSWRDCVEVYADADEILQEEIKEYKARLTCPCCNTRKKDAVLTKCFHVFCFECVRGRYEARQRKCPKCNAAFGAHDFHRIYIS
